B1: Forkhead box protein P2 (Homo sapiens), O15409-1 (parent)
chain: MMQESATETISNSSMNQNGMSTLSSQLDAGSRDGRSSGDTSSEVSTVELLHLQQQQALQAARQLLLQQQTSGLKSPKSSDKQRPLQVPVSVAMMTPQVITPQQMQQILQQQVLSPQQLQALLQQQQAVMLQQQQLQEFYKKQQEQLHLQLLQQQQQQQQQQQQQQQQQQQQQQQQQQQQQQQQQQQQQQQQHPGKQAKEQQQQQQQQQQLAAQQLVFQQQLLQMQQLQQQQHLLSLQRQGLISIPPGQAALPVQSLPQAGLSPAEIQQLWKEVTGVHSMEDNGIKHGGLDLTTNNSSSTTSSNTSKASPPITHHSIVNGQSSVLSARRDSSSHEETGASHTLYGHGVCKWPGCESICEDFGQFLKHLNNEHALDDRSTAQCRVQMQVVQQLEIQLSKERERLQAMMTHLHMRPSEPKPSPKPLNLVSSVTMSKNMLETSPQSLPQTPTTPTAPVTPITQGPSVITPASVPNVGAIRRRHSDKYNIPMSSEIAPNYEFYKNADVRPPFTYATLIRQAIMESSDRQLTLNEIYSWFTRTFAYFRRNAATWKNAVRHNLSLHKCFVRVENVKGAVWTVDEVEYQKRRSQKITGSPTLVKNIPTSLGYGAALNASLQAALAESSLPLLSNPGLINNASSGLLQAVHEDLNGSLDHIDSNGNSSPGCSPQPHIHSIHVKEEPVIAEDEDCPMSLVTTANHSPELEDDREIEEEPLSEDLE
partner: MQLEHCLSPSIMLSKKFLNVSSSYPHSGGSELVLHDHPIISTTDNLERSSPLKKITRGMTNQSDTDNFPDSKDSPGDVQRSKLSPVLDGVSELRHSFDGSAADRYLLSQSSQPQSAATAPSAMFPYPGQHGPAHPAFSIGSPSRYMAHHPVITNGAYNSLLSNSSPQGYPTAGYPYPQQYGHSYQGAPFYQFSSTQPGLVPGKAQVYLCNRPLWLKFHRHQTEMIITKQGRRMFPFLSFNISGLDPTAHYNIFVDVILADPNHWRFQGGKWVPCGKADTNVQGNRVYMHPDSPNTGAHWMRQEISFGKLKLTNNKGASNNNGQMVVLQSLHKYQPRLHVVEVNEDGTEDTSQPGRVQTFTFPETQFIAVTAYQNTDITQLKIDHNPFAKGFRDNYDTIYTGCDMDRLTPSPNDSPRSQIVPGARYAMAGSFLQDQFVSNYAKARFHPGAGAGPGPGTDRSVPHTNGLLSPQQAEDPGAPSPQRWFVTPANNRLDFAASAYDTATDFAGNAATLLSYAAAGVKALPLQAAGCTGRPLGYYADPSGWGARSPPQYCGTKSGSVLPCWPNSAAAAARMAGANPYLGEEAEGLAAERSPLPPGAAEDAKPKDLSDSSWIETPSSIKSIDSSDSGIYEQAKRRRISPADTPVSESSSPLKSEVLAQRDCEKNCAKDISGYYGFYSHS
B2: T-box brain protein 1 (Homo sapiens), Q16650 (parent)
chain: B1 partner

Variants of: B1
Conditions: with tbr1_human TBR1, Q16650

| effect of a mutation on the interaction | Variant |
| --- | --- |
| decreasing interaction strength | R553H |

Variants of: B2
Conditions: with FOXP2, O15409-1

| effect of a mutation on the interaction | Variant |
| --- | --- |
| decreasing interaction strength | Q178E |
| decreasing interaction strength | V356M |
| disrupting interaction strength | Q418R |
| decreasing interaction strength | P542R |
| disrupting interaction strength | K228E |
| disrupting interaction strength | N374H |

Source: IntAct's records for PubMed 25232744
